Data from patent US20210147541A1.

B1: iCADM3_3R1-L11 VHH-hG4PE(R409K) (Fc fusion, not shown: a dimerising Fc or GST)
chain: QVQLVESGGGLVQAGGSLRLSCAASGSIFSFNAMGWYRQAPGKQRGLVAVITSGGYTNYADSVKGRFTITRDNAKNTVYLQMNSLKPEDTAVYYCNAEGVYSDYVIMNYWGQGTQVTVSS
B2: iCADM3_3R1-L5 VHH-hG4PE(R409K) (Fc fusion, not shown: a dimerising Fc or GST)
chain: QVQLVESGGGLVQAGGSLRLSCAASGSIVSVNAMGWYRQAPGKQRELVATITSGGSTNYADSAKGRFTISRDNAKNTMYLQMNSLKPEDTAVYYCNGEFWSRRDTRPPGVVNYWGQGTQVTVSS
B3: CADM3102 scFv-hG4PE (Fc fusion)
VH: QMQLVQSGAEVKKPGSSVKVSCKASGGTFSSYAISWVRQAPGQGLEWMGGIIPMSGTANYAQKFQGRVTITADESTSTAYMELSSLRSEDTAVYYCARVEESGWYDHYHGMDVWGQGTTVTVSS
VL: DVVMTQSPLSLPVTPGEPASISCTSSQSLLYSNGFNYLDWYLQKPGQSPQLLIYLGSNRASGVPDRFSGSGSGTDFTLKISRVEAEDVGVYYCMQALTTHPTFGGGTKVDIK
B4: anti-AVM antibody (antibody, V domains shown)
VH: EVQLVESGGGLVQPGRSLKLSCAASGFTFSNYAMAWVRRAPTKGLEWVASISNGGGNTYYRDSVKGRFTISRDDAKNTLYLQMDSLRSEDTATYYCARHGNYIYYGSFFDYWGQGVMVTVSS
VL: QFVLSQPNSVSTNLGSTVKLSCKRSTGNIGSNYVSWYQQHEGRSPTTMIYRDDKRPDGVPDRFSGSIDRSSDSALLTINNVQTEDEADYFCQSYSSGINIFGGGTKLTVLG
B5: iCADM3_3R1-L8 VHH-hG4PE(R409K) (Fc fusion, not shown: a dimerising Fc or GST)
chain: QVQLVESGGGLVQPGGSLRLSCAASGRTFSNYARGWFRQAPGKEREFVAAIDYSGGSTNYADSAKGRFTISRDNAKNTVYLQMNSLKPGDTAVYYCAAPASRRPSWDADGYDYWGQGTQVTVSS
B6: iCADM3_3R1-L10 VHH-hG4PE(R409K) (Fc fusion, not shown: a dimerising Fc or GST)
chain: QVQLVESGGGLVQAGGSLRLSCAASGSIFSIHAMGWYRQAPGKQRELVATVTSGGSTNYADSVKGRFTISRDNAKNTVYLQMNSLKPEDTAVYYCNAETPYYSSTYYTNYWGQGTQVTVSS
B7: CADM301 scFv-hG4PE (Fc fusion)
VH: QVQLVQSGAEVRRPGTSVKVSCKASGYSFTSYDINWVRLATGQGLEWMGWMNPNTGDTGSPQKFQDRVTMTRDISTGTAYLELRGLKSEDTAIYYCARGFLVTAYTAEFFPHWGQGTLVTVSS
VL: SYVLTQPPSVSVAPGKTARLTCGGNNIGSKSVHWYQQRPGQAPVLVINYDSDRPSGIPERFSGSNSENTATLTISRVEAGDEADYYCQVWDSGSDHVVFGGGTQLIIL

biological target: monkey CADM3 (cynomolgus monkey); assay: flow cytometry, 10 ug/mL, monkey CADM3/Expi293F vs parent Expi293F cells
Sequence (Q8N126 25-398 S206N limits assumed, form in doubt): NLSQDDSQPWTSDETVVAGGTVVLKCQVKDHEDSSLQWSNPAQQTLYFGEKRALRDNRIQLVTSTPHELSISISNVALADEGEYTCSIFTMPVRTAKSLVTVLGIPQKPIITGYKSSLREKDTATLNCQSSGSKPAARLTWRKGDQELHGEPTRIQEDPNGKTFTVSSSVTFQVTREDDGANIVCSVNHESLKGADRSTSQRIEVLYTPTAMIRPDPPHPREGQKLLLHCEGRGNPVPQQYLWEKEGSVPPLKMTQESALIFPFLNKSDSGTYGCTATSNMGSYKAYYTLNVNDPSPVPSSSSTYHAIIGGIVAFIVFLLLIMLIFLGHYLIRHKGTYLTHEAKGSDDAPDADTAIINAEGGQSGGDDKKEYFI

In order of rising Mean fluorescence intensity ratio:
1. B4  1.02
2. B7  5.72
3. B5  6.91
4. B2  26.6
5. B1  35.3
6. B6  36.5
7. B3  51.5
